Assays:
[1] = target: T1, LARP1 full length (UniProt Q6PKG0-3 1-1019); assay: EMSA; judged non-specific; Kd only in figure; 20 mM Tris-HCl pH 8, 150 mM NaCl, 10% glycerol, 1 mM DTT, 1 ug BSA, 0.5 ug tRNA, RNA <2 nM, 30 min on ice; native PAGE at 4 C; conditions: protein: recombinant; tags: N-terminal 6xHis-MBP, removed by TEV cleavage; label: 5'-32P
[2] = target: T1, LARP1 full length; assay: EMSA; tRNA and BSA present; Kd only in figure; 20 mM Tris-HCl pH 8, 150 mM NaCl, 10% glycerol, 1 mM DTT, 1 ug BSA, 0.5 ug tRNA, RNA <2 nM, 30 min on ice; native PAGE at 4 C; conditions: protein: recombinant; tags: N-terminal 6xHis-MBP, removed by TEV cleavage; label: 5'-32P in direct EMSA
[3] = target: T1, LARP1 full length; assay: competition; vs 32P-RPS6, 1-30 uM cold RNA; 20 mM Tris-HCl pH 8, 150 mM NaCl, 10% glycerol, 1 mM DTT, 1 ug BSA, 0.5 ug tRNA, RNA <2 nM, 30 min on ice; native PAGE at 4 C; conditions: protein: recombinant; tags: N-terminal 6xHis-MBP, removed by TEV cleavage; label: 5'-32P in direct EMSA

Binder | binding signal [1] | other results
BCL2 3' UTR construct 2 (ssRNA) RNA: GCCCUCCUGCCCUCCUUCCGCGGGGGCUUUCUCAUGGCUGUCCUUCAGGGUCUUCCUGAAAUGCAGUGGUGCUUACGCUCCACCAAGAAAGCAGGAAACCUGUGGUAUGAAGCCAGACCUCCCCGG | ~0.25 affinity relative to BCL2 construct 3 | –
BCL2 3' UTR construct 4 (ssRNA) RNA: GCCCUCCAGAUAGCUCAUUUCAUUAAGUUUUUCCCUCCAAGGUAGAAUUUGCAAGAGUGACAGUGGAUUGCAUUUCUUUUGGGGAAGCUUUCUUUUGGUGGUUUUGUUUAUUAUACCUUCUUAAGUUUUCAACCAAGGUUUGCUUUUGUU | ~0.25 affinity relative to BCL2 construct 3 | –
BCL2 3' UTR construct 3 (ssRNA) RNA: GCCUGUUUUGUCUUUUGUUGUUGUUCAAACGGGAUUCACAGAGUAUUUGAAAAAUGUAUAUAUAUUAAGAGGUCACGGGGGCUAAUUGCUGGCUGGCUGCCUUUUGCUGUGGGGUUUUGUU | – | binding signal [2]: ~4 fold higher affinity than other BCL2 constructs
BCL2 3' UTR construct 1 (ssRNA) RNA: GGCUCCACCUGGAUGUUCUGUGCCUGUAAACAUAGAUUCGCUUUCCAUGUUGUUGGCCGGAUCACCAUCUGAAGAGCAGACGGAUGGAAAAAGGACCUGAUCAUUGGGGAAGCUGGCUUUCUGGCUGCUGGAGGCUGGGGAGAAGGUGUUCAUUCACUUGCAUUUCUUUGCCCUGGG | ~0.25 affinity relative to BCL2 construct 3 | –
OAZ1 3' UTR (ssRNA) RNA: GGCCGCCUCGGGGCUGGGCAUCCGGCCCCUGGGGCCACCCCUUGUCAGCCGGGUGGGUAGGAACCGUAGACUCGCUCAUCUCGCCUGGGUUUGUCCGCAUGUUG | – | binding result [3]: no binding

— publication PMC4756840, “The RNA-binding protein LARP1 is a post-transcriptional regulator of survival and tumorigenesis in ovarian cancer”
